Data as given in publication doi:10.1101/2020.11.17.387829v1.
Positions count from the first letter of the chain named. Numbers in names are those of the source. Like-named read-outs stand apart in the source and are kept apart here.

Substrate: O=[N+]([O-])c1ccc(O[C@@H]2O[C@H](CO)[C@@H](O)[C@H](O)[C@H]2O)cc1
Test: purified protein
[1] = average of two wild-type replicates (WT-1 2.4 mM, WT-2 5.3 ± 0.4 mM)
[2] = poorly determined fit: large printed errors
[3] = error exceeds the value, nearly inactive

B1: β-glucosidase B (BglB) (Paenibacillus polymyxa) (protein)
chain: MSENTFIFPATFMWGTSTSSYQIEGGTDEGGRTPSIWDTFCQIPGKVIGGDCGDVACDHFHHFKEDVQLMKQLGFLHYRFSVAWPRIMPAAGIINEEGLLFYEHLLDEIELAGLIPMLTLYHWDLPQWIEDEGGWTQRETIQHFKTYASVIMDRFGERINWWNTINEPYCASILGYGTGEHAPGHENWREAFTAAHHILMCHGIASNLHKEKGLTGKIGITLNMEHVDAASERPEDVAAAIRRDGFINRWFAEPLFNGKYPEDMVEWYGTYLNGLDFVQPGDMELIQQPGDFLGINYYTRSIIRSTNDASLLQVEQVHMEEPVTDMGWEIHPESFYKLLTRIEKDFSKGLPILITENGAAMRDELVNGQIEDTGRHGYIEEHLKACHRFIEEGGQLKGYFVWSFLDNFEWAWGYSKRFGIVHINYETQERTPKQSALWFKQMMAKNGF
For B1, the Km [1] was 3.9 ± 0.3 mM and the kcat [1] was 12.4 ± 0.158 s⁻¹.

B2: β-glucosidase B (BglB) (Paenibacillus polymyxa; L174M) (protein)
chain: B1 chain with L174M
In the case of B2, the Km is reported as 4.3 ± 0.3 mM and the kcat is reported as 14.79 ± 0.405 s⁻¹.

B3: β-glucosidase B (BglB) (Paenibacillus polymyxa; H181M) (protein)
chain: B1 chain with H181M
B3 showed a Km of 5.6 ± 1.9 mM and a kcat of 11.98 ± 1.807 s⁻¹.

B4: β-glucosidase B (BglB) (Paenibacillus polymyxa; F418M) (protein)
chain: B1 chain with F418M
Protein B4 has a Km [2] of 29.6 ± 20.5 mM and a kcat [2] of 0.37 ± 0.572 s⁻¹.

B5: β-glucosidase B (BglB) (Paenibacillus polymyxa; E409W) (protein)
chain: B1 chain with E409W
B5 showed a Km [3] of 2.5 ± 3.1 mM and a kcat [3] of 0.0017 ± 0.0017 s⁻¹.

B6: β-glucosidase B (BglB) (Paenibacillus polymyxa; M224L) (protein)
chain: B1 chain with M224L
B6 showed a Km of 4.2 mM and a kcat of 10.51 s⁻¹.

B7: β-glucosidase B (BglB) (Paenibacillus polymyxa; N163E) (protein)
chain: B1 chain with N163E
In the case of B7, the Km (error exceeds the value) is reported as 21.4 ± 52.4 mM and the kcat (error exceeds the value) is reported as 1.02 ± 0.483 s⁻¹.
